# Test results reported in patent publication US20220372155A1 (LYVGEN BIOPHARMA, published 2022).
# T1: human B7H4 expressed on CHO cells (human, UniProt Q7Z7D3 25-282)
# T1 construct: whole, on cells; also called VCTN1
# T1 sequence (looked up): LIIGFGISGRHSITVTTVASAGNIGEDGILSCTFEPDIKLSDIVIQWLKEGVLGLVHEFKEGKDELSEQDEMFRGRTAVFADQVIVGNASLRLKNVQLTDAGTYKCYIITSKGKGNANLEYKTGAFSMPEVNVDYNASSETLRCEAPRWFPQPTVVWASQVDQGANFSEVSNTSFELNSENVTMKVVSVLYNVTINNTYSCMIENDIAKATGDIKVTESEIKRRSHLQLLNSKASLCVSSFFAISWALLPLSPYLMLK
# How the values were obtained:
# [1] = biological target: T2, human CD40 expressed on CHO cells (human, UniProt P25942 21-277); assay: FACS, CHO cells
# T2 construct: whole, on cells; also used for the reporter cells over-expressing human CD40; also called cellular CD40; CHO-CD40 cells
# [2] = biological target: T1, human B7H4 expressed on CHO cells; assay: FACS, CHO cells
# T2 sequence (P25942 21-277): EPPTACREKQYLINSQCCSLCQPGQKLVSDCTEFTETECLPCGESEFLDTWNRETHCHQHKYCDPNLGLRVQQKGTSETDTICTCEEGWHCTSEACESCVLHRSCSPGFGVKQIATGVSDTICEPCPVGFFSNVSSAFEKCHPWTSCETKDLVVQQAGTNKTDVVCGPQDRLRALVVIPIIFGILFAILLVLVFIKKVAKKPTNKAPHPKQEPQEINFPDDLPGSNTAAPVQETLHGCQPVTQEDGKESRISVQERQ
Binder,binding result [1],binding result [2]
"Ly486 (bispecific antibody, human IgG1, kappa, Ly366 HC (IgG1 mutated Fc)-TM740 scFv VL-VH + Ly366 LC) heavy: EVQLVESGGGLVKPGGSLKLSCAASGFTFSDSGMHWVRQAPEKGLEWITYINSGSSTIYYADSVKGRFTISRDNAKNTLFLQMTSLRSEDTAMYYCARGRGYAMDYWGQGTSVTVSSASTKGPSVFPLAPSSKSTSGGTAALGCLVKDYFPEPVTVSWNSGALTSGVHTFPAVLQSSGLYSLSSVVTVPSSSLGTQTYICNVNHKPSNTKVDKKVEPKSCDKTHTCPPCPAPELLGPSVFLFPPKPKDTLMISRTPEVTCVVVDVSHEDPEVKFNWYVDGVEVHNAKTKPREEQYNSTYRVVSVLTVLHQDWLNGKEYKCKVSNKALPAPIEKTISKAKGQPREPQVYTLPPSREEMTKNQVSLTCLVKGFYPSDIAVEWESNGQPENNYKTTPPVLDSDGSFFLYSKLTVDKSRWQQGNVFSCSVMHEALHNHYTQKSLSLSPGGGGGSGGGGSGGGGSGGGGSDIQMTQSPSSLSASVGDRVTITCKASQNIYIYLNWYQQKPGKAPKLLIYNTNNLQTGVPSRFSGSGSGTDFTLTISSLQPEDFATYYCLQHSSRRTFGGGTKVEIKGGGGSGGGGSGGGGSGGGGSQVQLVESGGGLVQPGGSLKLSCATSGFNFNDYFMNWVRQASGKGLEWVGQIRNKNYNYATYYTESLEGRVTISRDDSKNTAYLQMNSLKTEDTAVYYCTSYYYDGFADYFDYWGQGTTVTVSS light: EIVLTQSPTTMAASPGEKITIFCSASSSISSDFLHWYQQKPGFSPKLLIYRISNLASGVPARFSGSGSGTSYSLTIGTMEAEDVATYYCQQGSNVPRTFGGGTKLEIKRTVAAPSVFIFPPSDEQLKSGTASVVCLLNNFYPREAKVQWKVDNALQSGNSQESVTEQDSKDSTYSLSSTLTLSKADYEKHKVYACEVTHQGLSSPVTKSFNRGEC",binds,binds
"Ly366 (chimeric) (antibody, human IgG1, kappa, V domains shown, chimeric, human IgG1 constant region; also called hybridoma 25F3) VH: EVQLVESGGGLVKPGGSLKLSCAASGFTFSDSGMHWVRQAPEKGLEWITYINSGSSTIYYADSVKGRFTISRDNAKNTLFLQMTSLRSEDTAMYYCARGRGYAMDYWGQGTSVTVSS VL: EIVLTQSPTTMAASPGEKITIFCSASSSISSDFLHWYQQKPGFSPKLLIYRISNLASGVPARFSGSGSGTSYSLTIGTMEAEDVATYYCQQGSNVPRTFGGGTKLEIKR",,binds
"Ly488 (bispecific antibody, human IgG1, kappa, Ly366 HC (IgG1 mutated Fc) + Ly366 LC-TM740 scFv VL-VH) heavy: EVQLVESGGGLVKPGGSLKLSCAASGFTFSDSGMHWVRQAPEKGLEWITYINSGSSTIYYADSVKGRFTISRDNAKNTLFLQMTSLRSEDTAMYYCARGRGYAMDYWGQGTSVTVSSASTKGPSVFPLAPSSKSTSGGTAALGCLVKDYFPEPVTVSWNSGALTSGVHTFPAVLQSSGLYSLSSVVTVPSSSLGTQTYICNVNHKPSNTKVDKKVEPKSCDKTHTCPPCPAPELLGPSVFLFPPKPKDTLMISRTPEVTCVVVDVSHEDPEVKFNWYVDGVEVHNAKTKPREEQYNSTYRVVSVLTVLHQDWLNGKEYKCKVSNKALPAPIEKTISKAKGQPREPQVYTLPPSREEMTKNQVSLTCLVKGFYPSDIAVEWESNGQPENNYKTTPPVLDSDGSFFLYSKLTVDKSRWQQGNVFSCSVMHEALHNHYTQKSLSLSPGK light: EIVLTQSPTTMAASPGEKITIFCSASSSISSDFLHWYQQKPGFSPKLLIYRISNLASGVPARFSGSGSGTSYSLTIGTMEAEDVATYYCQQGSNVPRTFGGGTKLEIKRTVAAPSVFIFPPSDEQLKSGTASVVCLLNNFYPREAKVQWKVDNALQSGNSQESVTEQDSKDSTYSLSSTLTLSKADYEKHKVYACEVTHQGLSSPVTKSFNRGECGGGGSGGGGSGGGGSGGGGSDIQMTQSPSSLSASVGDRVTITCKASQNIYIYLNWYQQKPGKAPKLLIYNTNNLQTGVPSRFSGSGSGTDFTLTISSLQPEDFATYYCLQHSSRRTFGGGTKVEIKGGGGSGGGGSGGGGSGGGGSQVQLVESGGGLVQPGGSLKLSCATSGFNFNDYFMNWVRQASGKGLEWVGQIRNKNYNYATYYTESLEGRVTISRDDSKNTAYLQMNSLKTEDTAVYYCTSYYYDGFADYFDYWGQGTTVTVSS",binds,binds
"Ly492 (bispecific antibody, human IgG1, kappa, Ly366 HC (IgG1 mutated Fc) + Ly366 LC-TM559 scFv VL-VH) heavy: EVQLVESGGGLVKPGGSLKLSCAASGFTFSDSGMHWVRQAPEKGLEWITYINSGSSTIYYADSVKGRFTISRDNAKNTLFLQMTSLRSEDTAMYYCARGRGYAMDYWGQGTSVTVSSASTKGPSVFPLAPSSKSTSGGTAALGCLVKDYFPEPVTVSWNSGALTSGVHTFPAVLQSSGLYSLSSVVTVPSSSLGTQTYICNVNHKPSNTKVDKKVEPKSCDKTHTCPPCPAPELLGPSVFLFPPKPKDTLMISRTPEVTCVVVDVSHEDPEVKFNWYVDGVEVHNAKTKPREEQYNSTYRVVSVLTVLHQDWLNGKEYKCKVSNKALPAPIEKTISKAKGQPREPQVYTLPPSREEMTKNQVSLTCLVKGFYPSDIAVEWESNGQPENNYKTTPPVLDSDGSFFLYSKLTVDKSRWQQGNVFSCSVMHEALHNHYTQKSLSLSPGK light: EIVLTQSPTTMAASPGEKITIFCSASSSISSDFLHWYQQKPGFSPKLLIYRISNLASGVPARFSGSGSGTSYSLTIGTMEAEDVATYYCQQGSNVPRTFGGGTKLEIKRTVAAPSVFIFPPSDEQLKSGTASVVCLLNNFYPREAKVQWKVDNALQSGNSQESVTEQDSKDSTYSLSSTLTLSKADYEKHKVYACEVTHQGLSSPVTKSFNRGECGGGGSGGGGSGGGGSGGGGSDIQMTQSPSSLSASVGDRVTITCLASEDISNDLAWYQQKPGKAPKLLIYFVDRLLDGVPSRFSGSGSGTDFTLTISSLQPEDFATYYCQQSYKYPPTFGQGTKLEIKGGGGSGGGGSGGGGSGGGGSEVQLVESGGGLVQPGGSLRLSCAASGFTFTNYGLHWVRQAPGKGLEWVSSISPSGGVTYYRDSVKGRFTISRDNSKNTLYLQMNSLRAEDTAVYYCAKPFLGWGGANWIAHWGQGTLVTVSS",binds,binds
"Ly493 (bispecific antibody, human IgG1, kappa, Ly366 HC (IgG1 mutated Fc) + Ly366 LC-TM559 scFv VH-VL) heavy: EVQLVESGGGLVKPGGSLKLSCAASGFTFSDSGMHWVRQAPEKGLEWITYINSGSSTIYYADSVKGRFTISRDNAKNTLFLQMTSLRSEDTAMYYCARGRGYAMDYWGQGTSVTVSSASTKGPSVFPLAPSSKSTSGGTAALGCLVKDYFPEPVTVSWNSGALTSGVHTFPAVLQSSGLYSLSSVVTVPSSSLGTQTYICNVNHKPSNTKVDKKVEPKSCDKTHTCPPCPAPELLGPSVFLFPPKPKDTLMISRTPEVTCVVVDVSHEDPEVKFNWYVDGVEVHNAKTKPREEQYNSTYRVVSVLTVLHQDWLNGKEYKCKVSNKALPAPIEKTISKAKGQPREPQVYTLPPSREEMTKNQVSLTCLVKGFYPSDIAVEWESNGQPENNYKTTPPVLDSDGSFFLYSKLTVDKSRWQQGNVFSCSVMHEALHNHYTQKSLSLSPGK light: EIVLTQSPTTMAASPGEKITIFCSASSSISSDFLHWYQQKPGFSPKLLIYRISNLASGVPARFSGSGSGTSYSLTIGTMEAEDVATYYCQQGSNVPRTFGGGTKLEIKRTVAAPSVFIFPPSDEQLKSGTASVVCLLNNFYPREAKVQWKVDNALQSGNSQESVTEQDSKDSTYSLSSTLTLSKADYEKHKVYACEVTHQGLSSPVTKSFNRGECGGGGSGGGGSGGGGSGGGGSEVQLVESGGGLVQPGGSLRLSCAASGFTFTNYGLHWVRQAPGKGLEWVSSISPSGGVTYYRDSVKGRFTISRDNSKNTLYLQMNSLRAEDTAVYYCAKPFLGWGGANWIAHWGQGTLVTVSSGGGGSGGGGSGGGGSGGGGSDIQMTQSPSSLSASVGDRVTITCLASEDISNDLAWYQQKPGKAPKLLIYFVDRLLDGVPSRFSGSGSGTDFTLTISSLQPEDFATYYCQQSYKYPPTFGQGTKLEIK",binds,binds
"Ly489 (bispecific antibody, human IgG1, kappa, Ly366 HC (IgG1 mutated Fc) + Ly366 LC-TM740 scFv VH-VL) heavy: EVQLVESGGGLVKPGGSLKLSCAASGFTFSDSGMHWVRQAPEKGLEWITYINSGSSTIYYADSVKGRFTISRDNAKNTLFLQMTSLRSEDTAMYYCARGRGYAMDYWGQGTSVTVSSASTKGPSVFPLAPSSKSTSGGTAALGCLVKDYFPEPVTVSWNSGALTSGVHTFPAVLQSSGLYSLSSVVTVPSSSLGTQTYICNVNHKPSNTKVDKKVEPKSCDKTHTCPPCPAPELLGPSVFLFPPKPKDTLMISRTPEVTCVVVDVSHEDPEVKFNWYVDGVEVHNAKTKPREEQYNSTYRVVSVLTVLHQDWLNGKEYKCKVSNKALPAPIEKTISKAKGQPREPQVYTLPPSREEMTKNQVSLTCLVKGFYPSDIAVEWESNGQPENNYKTTPPVLDSDGSFFLYSKLTVDKSRWQQGNVFSCSVMHEALHNHYTQKSLSLSPGK light: EIVLTQSPTTMAASPGEKITIFCSASSSISSDFLHWYQQKPGFSPKLLIYRISNLASGVPARFSGSGSGTSYSLTIGTMEAEDVATYYCQQGSNVPRTFGGGTKLEIKRTVAAPSVFIFPPSDEQLKSGTASVVCLLNNFYPREAKVQWKVDNALQSGNSQESVTEQDSKDSTYSLSSTLTLSKADYEKHKVYACEVTHQGLSSPVTKSFNRGECGGGGSGGGGSGGGGSGGGGSQVQLVESGGGLVQPGGSLKLSCATSGFNFNDYFMNWVRQASGKGLEWVGQIRNKNYNYATYYTESLEGRVTISRDDSKNTAYLQMNSLKTEDTAVYYCTSYYYDGFADYFDYWGQGTTVTVSSGGGGSGGGGSGGGGSGGGGSDIQMTQSPSSLSASVGDRVTITCKASQNIYIYLNWYQQKPGKAPKLLIYNTNNLQTGVPSRFSGSGSGTDFTLTISSLQPEDFATYYCLQHSSRRTFGGGTKVEIK",binds,binds
"LP3772 (antibody, human IgG4 S228P, kappa, VH-2/IgG4, VL-1/kappa) heavy: not shown light: DIQMTQSPSSLSASVGDRVTITCKASQNIYIYLNWYQQKPGKAPKLLIYNTNNLQTGVPSRFSGSGSGTDFTLTISSLQPEDFATYYCLQHSSRRTFGGGTKVEIKRTVAAPSVFIFPPSDEQLKSGTASVVCLLNNFYPREAKVQWKVDNALQSGNSQESVTEQDSKDSTYSLSSTLTLSKADYEKHKVYACEVTHQGLSSPVTKSFNRGEC",binds,
"Ly361 (chimeric) (antibody, human IgG1, kappa, V domains shown, chimeric, human IgG1 constant region; also called hybridoma 14D3) VH: EVQLVESGGDLVKPGGSLKLSCAASGFTFSSYGMSWVRQTPDKRLEWVAAISTGGSYTYYPDSVKGRFTISRDTATNTLYLQMSTLKSEDTAMYYCTRRGATGSWFAYWGQGTLVTVSA VL: DILMTQSPSSMSVSLGDTVSITCHASQGINNNIGWLQRKPGKSFKGLIYHGTNLEDGVPSRFSGSGSGADYSLTISSLESEDFADYYCVQYVQFPRTFGGGTKLEIKR",,binds
